For the assay, the target named is T1, SVCV-G protein, purified, biotinylated (spring viremia of carp virus (SVCV), UniProt Q91DS0 19-509, biotin (biotinylated)).
T1 chain: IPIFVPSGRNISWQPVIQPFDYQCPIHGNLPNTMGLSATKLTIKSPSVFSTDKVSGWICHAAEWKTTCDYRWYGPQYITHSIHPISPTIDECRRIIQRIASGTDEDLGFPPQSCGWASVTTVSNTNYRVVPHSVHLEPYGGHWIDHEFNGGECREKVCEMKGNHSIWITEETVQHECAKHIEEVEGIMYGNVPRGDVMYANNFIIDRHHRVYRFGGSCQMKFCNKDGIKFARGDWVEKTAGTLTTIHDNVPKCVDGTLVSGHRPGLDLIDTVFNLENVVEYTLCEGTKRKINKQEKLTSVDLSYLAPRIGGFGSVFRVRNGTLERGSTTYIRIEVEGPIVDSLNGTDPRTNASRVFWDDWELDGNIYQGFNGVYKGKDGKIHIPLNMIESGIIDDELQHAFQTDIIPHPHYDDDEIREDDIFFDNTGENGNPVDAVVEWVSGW
The assay is described as follows: BLI. A general note: BLI is a label-free optical method that tracks binding on a fibre tip over time.

B1: scFv-1 (scFv)
chain 1: QSVEESGGRLVTPGTPLTLTCTASGFSLSTYYMTWVRQAPGKGLEWIGIIDPYGTTWSASWVKGRFTISRTSTTVDLKMTSLTAADTATYFCARIDSIYTIGHCDLWGQGTLVTVSL
chain 2: ELVMTQTPASVSAAVGGTVTIKCQASQSIGTALAWYQQKPGQPPKLLIYKTSTLASGVSSRFKGSGSGTEFTLTISDLECADAVTYYCQYAYYGGNDVGGAFGGGDRAGDP
For orientation: Kd means the free concentration of one partner at which half of the binding sites on the other are occupied at equilibrium, for simple one-to-one binding. Consider B1, for which the Kd stood at 3.12 µM.

B2: scFv-2 (scFv)
chain 1: QSVEESGGRLITPGTPLTLTCTASGFSLSSHYMIWVRRTPGKGLEWIGLIFISGSTNYANWAKGRFTVSRTSTTVDLKITSPTTEDTATYFCARGRGGTDYQSWLFGLWGQGTVVTVSS
chain 2: ELVMTQTPSPVSVAVGGTVTINCQSSPSVYSNYLSWYQQKPGQPPKQLIYGASSLASGVPSRFKGSGSGTQFTLTISGVECDDAATYYCVGWKGGPNGEFAFGGGDRAGDP
Molecule B2 came in with a Kd of 3.71 µM.

These data come from publication PMC11784017 (2024).
